± gives the uncertainty stated by the source.
Assay: self-splicing fitness, log relative to wild type (ln ratio); higher = more splicing; Tetrahymena group I intron in knt gene, E. coli kanamycin selection, DiMSum; sequences stand for … in CUCUCU…GGAGGGAAAAGUUAUCAGGCAUGCACCUGGUAGCUAGUCUUUAAACCAAUAGAUUGCAUCGGUUUAAAAGGCAAGACCGUCAAAUUGCGGGAAAGGGGUCAACAGCCGUUCAGUACCAAGUCUCAGGGGAAACUUUGAGAUGGCCUUGCAAAGGGUAUGGUAAUAAGCUGACGGACAUGGUCCUAACCACGCAGCCAAGUCCUAAGUCAACAGAUCUUCUGUUGAUAUGGAUGCAGUUCACAGACUAAAUGUCGGUCGGGGAAGAUGUAUUCUUCUCAUAAGAUAUAGUCGGACCUCUCCUUAAUGGGAGCUAGCGGAUGAAGUGAUGCAACACUGGAGCCGCUGGGAACUAAUUUGUAUGCGAAAGUAUAUUGAUUAGUUUUGGAGUACUCGUGGUCG
Procedure, shortened: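 Library with all eight P1ex-region intron nucleotides randomised, intron inside the knt kanamycin-resistance gene on pET-22b(+), in E. coli BL21(DE3). Cells grew overnight at 37°C or 30°C on LB agar with or without 25 μg/mL kanamycin (plus 100 μg/mL carbenicillin, 50 μM IPTG, 0.2% rhamnose), in six replicate transformations. Pooled colonies were amplicon-sequenced on Illumina HiSeq 2500. DiMSum fitness is the error-weighted combination of wild-type-normalised replicate fold changes, kanamycin versus none.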

In the case of AUUCAGCAAUAUUACGACGA, the “self-splicing fitness (ln)” value (30 °C) is reported as -0.537 ± 0.1 and the “self-splicing fitness (ln)” value (37 °C) is reported as -0.53 ± 0.12.
In the case of AAUGAGCAAUAUUACGGCUG, the “self-splicing fitness (ln)” value (30 °C) is reported as -1.52 ± 0.096 and the “self-splicing fitness (ln)” value (37 °C) is reported as -1.47 ± 0.16.
With CAUCAGCAAUAUUACGCUGA the “self-splicing fitness (ln)” value (30 °C) was -3.2 ± 0.22 and the “self-splicing fitness (ln)” value (37 °C) was -2.24 ± 0.27.
For AGCGAGCAAUAUUACGCAUC, the “self-splicing fitness (ln)” value (30 °C) was -2.51 ± 0.36 and the “self-splicing fitness (ln)” value (37 °C) was -2.33 ± 0.33.
For ACCCAGCAAUAUUACGCACU, the “self-splicing fitness (ln)” value (30 °C) was -0.41 ± 0.064 and the “self-splicing fitness (ln)” value (37 °C) was 0.0872 ± 0.077.
With UGGUAGCAAUAUUACGUCCU the “self-splicing fitness (ln)” value (30 °C) was 0.31 ± 0.2 and the “self-splicing fitness (ln)” value (37 °C) was 0.713 ± 0.3.
In the case of UUCAAGCAAUAUUACGAGAU, the “self-splicing fitness (ln)” value (30 °C) is reported as -3.07 ± 0.19 and the “self-splicing fitness (ln)” value (37 °C) is reported as -2.17 ± 0.18.
For CCGAAGCAAUAUUACGUACC, the “self-splicing fitness (ln)” value (30 °C) was -3.47 ± 0.16 and the “self-splicing fitness (ln)” value (37 °C) was -2.5 ± 0.21.
With AGGUAGCAAUAUUACGCAGU the “self-splicing fitness (ln)” value (30 °C) was -2.979 ± 0.021 and the “self-splicing fitness (ln)” value (37 °C) was -1.68 ± 0.035.
With ACUCAGCAAUAUUACGGCAC the “self-splicing fitness (ln)” value (30 °C) was -1.24 ± 0.17 and the “self-splicing fitness (ln)” value (37 °C) was -0.799 ± 0.25.
In the case of UUUGAGCAAUAUUACGCAUA, the “self-splicing fitness (ln)” value (37 °C) is reported as -1.01 ± 0.29.
In the case of GGAGAGCAAUAUUACGACAC, the “self-splicing fitness (ln)” value (30 °C) is reported as -0.961 ± 0.28 and the “self-splicing fitness (ln)” value (37 °C) is reported as 0.238 ± 0.22.
For UGUUAGCAAUAUUACGGCUG, the “self-splicing fitness (ln)” value (30 °C) was 0.0825 ± 0.08 and the “self-splicing fitness (ln)” value (37 °C) was 0.196 ± 0.12.
With CGUUAGCAAUAUUACGGAUU the “self-splicing fitness (ln)” value (30 °C) was -2.33 ± 0.23 and the “self-splicing fitness (ln)” value (37 °C) was -2.21 ± 0.24.
For CAACAGCAAUAUUACGGGUU, the “self-splicing fitness (ln)” value (30 °C) was -3.14 ± 0.15 and the “self-splicing fitness (ln)” value (37 °C) was -1.78 ± 0.12.
With AGGGAGCAAUAUUACGUUUU the “self-splicing fitness (ln)” value (30 °C) was -2.81 ± 0.21 and the “self-splicing fitness (ln)” value (37 °C) was -2.22 ± 0.27.
With CUGCAGCAAUAUUACGAGAU the “self-splicing fitness (ln)” value (30 °C) was -3.69 ± 0.34.
With UGGCAGCAAUAUUACGAGGU the “self-splicing fitness (ln)” value (30 °C) was -3.29 ± 0.23 and the “self-splicing fitness (ln)” value (37 °C) was -2.53 ± 0.3.
With AAGAAGCAAUAUUACGCUAC the “self-splicing fitness (ln)” value (30 °C) was -2.18 ± 0.24 and the “self-splicing fitness (ln)” value (37 °C) was -1.93 ± 0.44.
With CGCAAGCAAUAUUACGUAGC the “self-splicing fitness (ln)” value (30 °C) was -3.3 ± 0.17 and the “self-splicing fitness (ln)” value (37 °C) was -1.17 ± 0.18.
In the case of UGAGAGCAAUAUUACGCAUC, the “self-splicing fitness (ln)” value (30 °C) is reported as -4.1 ± 0.46 and the “self-splicing fitness (ln)” value (37 °C) is reported as -1.8 ± 0.19.
For AGGCAGCAAUAUUACGCAGG, the “self-splicing fitness (ln)” value (30 °C) was -1.39 ± 0.084 and the “self-splicing fitness (ln)” value (37 °C) was -1.17 ± 0.1.
With GGGGAGCAAUAUUACGGUUG the “self-splicing fitness (ln)” value (30 °C) was -3.25 ± 0.21 and the “self-splicing fitness (ln)” value (37 °C) was -2.18 ± 0.22.
In the case of CAUAAGCAAUAUUACGUCCG, the “self-splicing fitness (ln)” value (30 °C) is reported as -0.727 ± 0.081 and the “self-splicing fitness (ln)” value (37 °C) is reported as 1.11 ± 0.12.
For AGCCAGCAAUAUUACGUCCU, the “self-splicing fitness (ln)” value (30 °C) was -0.436 ± 0.071 and the “self-splicing fitness (ln)” value (37 °C) was 0.142 ± 0.078.
With GCCAAGCAAUAUUACGGCGU the “self-splicing fitness (ln)” value (30 °C) was -0.74 ± 0.067 and the “self-splicing fitness (ln)” value (37 °C) was -0.453 ± 0.1.
With AAACAGCAAUAUUACGCAGC the “self-splicing fitness (ln)” value (30 °C) was -1.83 ± 0.14 and the “self-splicing fitness (ln)” value (37 °C) was -1.98 ± 0.23.
In the case of GGUUAGCAAUAUUACGGCGC, the “self-splicing fitness (ln)” value (30 °C) is reported as 0.645 ± 0.28 and the “self-splicing fitness (ln)” value (37 °C) is reported as -0.634 ± 0.25.
In the case of AACUAGCAAUAUUACGACUG, the “self-splicing fitness (ln)” value (30 °C) is reported as -0.606 ± 0.1 and the “self-splicing fitness (ln)” value (37 °C) is reported as -0.989 ± 0.13.
For GUACAGCAAUAUUACGCAUU, the “self-splicing fitness (ln)” value (30 °C) was -2.76 ± 0.14 and the “self-splicing fitness (ln)” value (37 °C) was -0.835 ± 0.087.
With GCGGAGCAAUAUUACGGCUC the “self-splicing fitness (ln)” value (30 °C) was -2.05 ± 0.36.
In the case of AAUCAGCAAUAUUACGCCAU, the “self-splicing fitness (ln)” value (30 °C) is reported as -2.35 ± 0.19 and the “self-splicing fitness (ln)” value (37 °C) is reported as -1.76 ± 0.14.
In the case of CAACAGCAAUAUUACGGUAC, the “self-splicing fitness (ln)” value (30 °C) is reported as -4.95 ± 0.28 and the “self-splicing fitness (ln)” value (37 °C) is reported as -3.34 ± 0.22.
In the case of AGCCAGCAAUAUUACGGAGU, the “self-splicing fitness (ln)” value (30 °C) is reported as -2.69 ± 0.19 and the “self-splicing fitness (ln)” value (37 °C) is reported as -1.66 ± 0.14.
In the case of GAGUAGCAAUAUUACGAUGC, the “self-splicing fitness (ln)” value (30 °C) is reported as -1.79 ± 0.23 and the “self-splicing fitness (ln)” value (37 °C) is reported as -0.495 ± 0.26.
In the case of UGGGAGCAAUAUUACGGCUG, the “self-splicing fitness (ln)” value (30 °C) is reported as -1.09 ± 0.19 and the “self-splicing fitness (ln)” value (37 °C) is reported as -2.31 ± 0.26.
With UAUAAGCAAUAUUACGUUCU the “self-splicing fitness (ln)” value (30 °C) was -1.03 ± 0.14 and the “self-splicing fitness (ln)” value (37 °C) was -1.41 ± 0.2.
For CAAAAGCAAUAUUACGCUCA, the “self-splicing fitness (ln)” value (30 °C) was -1.64 ± 0.11 and the “self-splicing fitness (ln)” value (37 °C) was -0.465 ± 0.13.
With GACAAGCAAUAUUACGGUAC the “self-splicing fitness (ln)” value (30 °C) was -2.81 ± 0.13 and the “self-splicing fitness (ln)” value (37 °C) was -2.64 ± 0.16.
In the case of AUUAAGCAAUAUUACGAUGA, the “self-splicing fitness (ln)” value (30 °C) is reported as -0.766 ± 0.11 and the “self-splicing fitness (ln)” value (37 °C) is reported as -0.613 ± 0.12.
For CAUGAGCAAUAUUACGACAC, the “self-splicing fitness (ln)” value (37 °C) was -1.19 ± 0.31.
With GGCAAGCAAUAUUACGCCAG the “self-splicing fitness (ln)” value (37 °C) was -2.52 ± 0.41.
In the case of CAGAAGCAAUAUUACGAUGU, the “self-splicing fitness (ln)” value (30 °C) is reported as -3.37 ± 0.23 and the “self-splicing fitness (ln)” value (37 °C) is reported as -1.97 ± 0.2.

— the supplement of paper PMC7877785
